The supplement of paper PMC12764529
± gives the half width of the 95% confidence interval.

Key:
[1] = folding stability dG unfold (combined trypsin and chymotrypsin); higher = more stable
Summary of the method: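 K50 was inferred by Bayesian fitting of sequencing counts obtained after protease digestion of designed mini-proteins. Unfolding free energy was derived by comparison with a sequence-predicted unfolded-state K50 and a shared folded-state K50, for each protease or both combined. The mini-proteins were under 80 residues, had no cysteine, were carried in a PA-tagged cDNA display construct, and were kept only if AlphaFold2 dimer inter-PAE exceeded 15.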

[2] = folding stability dG unfold from trypsin proteolysis; higher = more stable
Method: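 Folding stability of de novo designed mini-proteins (<80 aa, no Cys; designed by TrROS, TrMRF, ProteinMPNN and the joint model) was measured by cDNA display proteolysis with trypsin and chymotrypsin. Each protease was used at 11 concentrations in a threefold dilution series plus a no-protease condition. K50 was inferred by Bayesian fitting of sequencing counts, and dG unfold was derived against a sequence-predicted unfolded-state K50 (Tsuboyama et al. method). Sequences shown include variable-length N-terminal GS-type padding (SAGGSAGG...) inside a display construct carrying a PA tag. Rows were kept only if the AF2 dimer inter-PAE was >15, to exclude likely homo-oligomers.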

Sequence	folding stability dG unfold [1]	folding stability dG unfold [2]
SAGGSAGGSAGGPEYIQINIKIYDPDNPKEREIPISMPVEEIEKIAKEFMPPGYRVEIISAGGSAGGSAGGS [r10_397_TrROS]	< -1 kcal/mol	0.152 ± 0.14 kcal/mol
SAGGSAGGSAGGPIKVKADKVTVEKRRNPENGKEYVELTVPGPGGTRTGRFPAEDLDKISAGGSAGGSAGGS [r10_447_TrROS]	< -1 kcal/mol	-0.654 ± 0.21 kcal/mol
SAGGSAGGSAGGPKIDHVMLHRNPGNGRYNVTIKLRDPNGKPKDTIMVPMNDPEKILDALSAGGSAGGSAGG [r7_484_TrROS]	-0.652 ± 0.22 kcal/mol	-0.0862 ± 0.06 kcal/mol
SAGGSAGGSAGGPMSNVVEEVVSVEVTNPGLPDSRFVTNPEPGVPLPVPRTVPVVIVLRASAGGSAGGSAGG [r11_257_JUSTAS]	< -1 kcal/mol	-0.602 ± 0.33 kcal/mol
SAGGSAGGSAGGPSDVTLLEEEVEELPNGTIKTRYTFKLPNGELAEAESTTPLEGPFHHSAGGSAGGSAGGS [r10_532_JUSTAS]	-0.463 ± 0.26 kcal/mol	-0.0802 ± 0.2 kcal/mol
SAGGSAGGSAGGRIRLPNMPPGHDMEIKSIKVPEPGPVKLTIEPPGSDKKQERYMPPDDISAGGSAGGSAGG [r7_342_TrROS]	< -1 kcal/mol	0.0711 ± 0.23 kcal/mol
SAGGSAGGSAGGRITINPENGMVQIKGPNGNQHTFPMDDASELQKEFGLPNIDIEVFPPNSAGGSAGGSAGG [r7_235_TrROS]	-0.145 ± 0.22 kcal/mol	0.292 ± 0.15 kcal/mol
SAGGSAGGSAGGSEPWYVRIQIPDGNQIMFPPGSEAKIEIPKEEKDIRITEVIPADDIKSAGGSAGGSAGGS [r4_122_TrROS]	< -1 kcal/mol	0.0224 ± 0.13 kcal/mol
SAGGSAGGSAGGSERHTAVLVDTGFRISPAPEEGGLRLEAGASLTIREVPEDALKEVLGSAGGSAGGSAGGS [r4_274_TrMRF]	< -1 kcal/mol	-0.398 ± 0.26 kcal/mol
SAGGSAGGSAGGSKKTAVLKVGDKWIPLEIDEDKVTLIYPDGKKEEISLEDIPENTISDASAGGSAGGSAGG [r7_748_TrMRF]	-0.212 ± 0.11 kcal/mol	0.0901 ± 0.064 kcal/mol
SAGGSAGGSAGGSMAIPVYLKIENKVLTSLDELKEAVESGKPIEIERIEAFDLSPDEEVSAGGSAGGSAGGS [r4_479_TrMRF]	< -1 kcal/mol	-0.74 ± 0.35 kcal/mol
SAGGSAGGSAGGSMPLRKVTVSRPDSTLEFEFPESVPEEEVKEKLKKEYPNAEVKVEPESAGGSAGGSAGGS [r4_155_JUSTAS]	< -1 kcal/mol	-0.633 ± 0.25 kcal/mol
SAGGSAGGSAGGSMVLYERVPASELPPGKGETLLIREVTVEKLPGNRIILNEGVKVIPPSAGGSAGGSAGGS [r4_444_JUSTAS]	-0.831 ± 0.24 kcal/mol	-0.186 ± 0.15 kcal/mol
SAGGSAGGSAGGVPEEEIRERVEAAGLTAPDAEVVYETPENITVRVTVPPTGLVFERLESAGGSAGGSAGGS [r10_604_JUSTAS]	-0.367 ± 0.1 kcal/mol	0.0893 ± 0.048 kcal/mol
SAGGSAGGSAGGVRIRPPNGEWIRIDNAPDDEDIKDKLKKHPNVKPEIDPDTNEAWIPVSAGGSAGGSAGGS [r10_792_TrROS]	< -1 kcal/mol	-1.09 ± 0.42 kcal/mol
SAGGSAGGSAGGYKVKVYNPENGKPQEIPLPPNDIPELLDKLPNGPWWIRVKDPDRWIPLSAGGSAGGSAGG [r7_188_TrROS]	-0.562 ± 0.57 kcal/mol	-1.05 ± 0.51 kcal/mol
SAGGSAGGSAGIPNLIAYEVSKEGKPVKIIVKSPNGEEYEITVSPNESIPENIEILKVEVGSAGGSAGGSAG [r3_421_TrMRF]	-0.0441 ± 0.15 kcal/mol	0.685 ± 0.034 kcal/mol
SAGGSAGGSAGITIEFPEEENNFRVENPNDGKKHEIPGTPDEIKEYALDKFPGRPIKIHPSAGGSAGGSAGG [r11_614_TrROS]	-0.511 ± 0.43 kcal/mol	0.11 ± 0.079 kcal/mol
SAGGSAGGSAGKIKAYAEKDVPAEIVAKAIEEEIREAFPDNPEEIKGIEVEPDGFLSETISAGGSAGGSAGG [r17_43_TrMRF]	< -1 kcal/mol	-0.636 ± 0.15 kcal/mol
SAGGSAGGSAGKVKVKVESNPDGTLIIAEEFEDFVVIVELKVDDDGIHFHPHPVVLSKELSAGGSAGGSAGG [r17_72_TrMRF]	-0.695 ± 0.38 kcal/mol	0.0484 ± 0.1 kcal/mol
SAGGSAGGSAGLVKLKDKNGKLITLEVKEVEVVEVKEVTLKPKPKPKKTLKLSEEELKKLSAGGSAGGSAGG [r17_484_TrROS_Hall]	-0.494 ± 0.25 kcal/mol	-0.143 ± 0.075 kcal/mol
